Measurements reported in patent US20240197906A1, “ANTI-cMET ANTIBODY DRUG CONJUGATES AND [sequence] USES THEREOF” (Mythic Therapeutics, Inc., priority 2022, published 2024).
“Also recorded” adds a separate entry of the source. One block for each molecule: values may come before it. Non-standard residues stand in square brackets, D forms with d. Residues, ends and D or L forms follow the SMILES beside them. *: point of attachment. Dolaproine = CO[C@@H]([C@@H]1CCCN1)[C@@H](C)C(=O)O; Dil = CC[C@H](C)[C@H](NC)[C@@H](CC(=O)O)OC; X1 = C[C@@H](N*)[C@@H](O)c1ccccc1; NMeV = CN[C@H](C(=O)O)C(C)C

Assays:
EBC-1 cells [1] = test: Cell cycle arrest assay; assay type: cell-based, human; settings: 10 nM, 24 hours
Method: Cell Cycle Arrest Assay. Briefly, EBC-1 cells were cultured in standard culture media (Eagle's minimum essential medium+10% fetal bovine serum) and conditions recommended by the vendor. Cells were plated at a density of 2×10^4 cells per well and incubated at 37° C. for 24 hours. […] Plates were incubated for 24 hours at 37° C. At the end of the culture period, test articles were removed from the plate. Cells were trypsinized, washed, and fixed in 70% ethanol for 30 minutes. Cells were washed, stained with propidium iodide staining using a cell cycle analysis kit (Abcam), and assessed by flow cytometry.

EBC-1 cells [2] = test: Complement dependent cytotoxic assay; assay type: cell-based; settings: 30% human complement
Method: Complement Dependent Cytotoxic Assay. EBC-1 cells were incubated with serially diluted test articles: Q397-noV205C or non-binding antibody. For the technical control, Raji cells, which expresses CD20 on the cell surface, were incubated with serially diluted test articles: anti-CD20 (research grade recombinant anti-CD20 rituximab, catalog number A2009) or non-binding antibody (human IgG1 isotype control antibody, catalog number BE0297). Briefly, EBC-1 and Raji cells were added to a 96-well U-bottom plate at a density of 2.5×10^4 cells/well. Serially diluted test articles were added to the plate. The starting concentration of all test articles was 100 nM. A 3-fold dilution was performed for 9 concentration points and added to the test plate in duplicates. The plate was then incubated for 30 minutes at 37° C. At the end of the culture period, either heat inactivated or pooled human complement sera at a final concentration of 30% diluted in culture media (RPMI) was added to the plate. The plate was then incubated at 37 °C for two hours and cell lysis was assessed using CellTiter-Glo.

NCI-H441 cells = test: Cell proliferation assay (CellTiter-Glo); assay type: cell-based, human; settings: 10 nM, 4 days, serum starved
EBC-1 cells [3] = test: ADCC effector function with PBMCs; assay type: cell-based, human; settings: PBMCs from all donors, vs IgG1 isotype control
EBC-1 cells [4] = test: ADCP effector function; assay type: cell-based, human; settings: vs IgG1 isotype control
[5] = system: phosphorylation of ERK1/2 and Akt1 in NCI-H441 cells; test: Cell signaling assay (ELISA); assay type: cell-based, human; settings: 10 μg/mL, 30 minutes
Method: Cell Signaling Assay. Briefly: NCI-H441 cells were cultured in standard culture media (RPMI-1640 Medium+10% fetal bovine serum) using conditions recommended by the vendor. For the cell signaling assay, NCI-H441 cells were seeded in 6-well plates at 300,000 cells per well in culture media. The next day, the cells were washed with serum-free medium twice and then replenished with 3 mL RPMI+0.2% fetal bovine serum.
The following day, cells were treated with 50 ng/ml HGF or 10 μg/mL of test articles and incubated for 30 minutes at 37° C. Following the 30-minute stimulation, the treatment medium was aspirated, the cells were washed 2 times in an excess volume of ice-cold phosphate buffered saline and collected by cell scraping on ice in 250 μL ice-cold lysis buffer per well and transferred to pre-chilled tubes. […] Lysates were thawed on ice for 1 hour with occasional vortexing, and protein concentrations were measured using the BCA protein assay according to the manufacturer's instructions. Lysates were diluted in lysis buffer to final concentration 0.5 mg/mL, and 100 μL of each sample was assessed using commercially available ELISA kits to detect total ERK1/2 and Akt1 and their phosphorylated forms. ELISAs were performed and analyzed according to the manufacturer's instructions. […]

[6] = target: recombinant cynomolgus monkey cMET (cynomolgus monkey, UniProt A0A2K5UM36 25-932); test: BLI (Octet), antibody captured on AHC sensor, recombinant cynomolgus monkey cMET as analyte, pH 7.4
Chain of recombinant cynomolgus monkey cMET (A0A2K5UM36 entry or part of it limits assumed): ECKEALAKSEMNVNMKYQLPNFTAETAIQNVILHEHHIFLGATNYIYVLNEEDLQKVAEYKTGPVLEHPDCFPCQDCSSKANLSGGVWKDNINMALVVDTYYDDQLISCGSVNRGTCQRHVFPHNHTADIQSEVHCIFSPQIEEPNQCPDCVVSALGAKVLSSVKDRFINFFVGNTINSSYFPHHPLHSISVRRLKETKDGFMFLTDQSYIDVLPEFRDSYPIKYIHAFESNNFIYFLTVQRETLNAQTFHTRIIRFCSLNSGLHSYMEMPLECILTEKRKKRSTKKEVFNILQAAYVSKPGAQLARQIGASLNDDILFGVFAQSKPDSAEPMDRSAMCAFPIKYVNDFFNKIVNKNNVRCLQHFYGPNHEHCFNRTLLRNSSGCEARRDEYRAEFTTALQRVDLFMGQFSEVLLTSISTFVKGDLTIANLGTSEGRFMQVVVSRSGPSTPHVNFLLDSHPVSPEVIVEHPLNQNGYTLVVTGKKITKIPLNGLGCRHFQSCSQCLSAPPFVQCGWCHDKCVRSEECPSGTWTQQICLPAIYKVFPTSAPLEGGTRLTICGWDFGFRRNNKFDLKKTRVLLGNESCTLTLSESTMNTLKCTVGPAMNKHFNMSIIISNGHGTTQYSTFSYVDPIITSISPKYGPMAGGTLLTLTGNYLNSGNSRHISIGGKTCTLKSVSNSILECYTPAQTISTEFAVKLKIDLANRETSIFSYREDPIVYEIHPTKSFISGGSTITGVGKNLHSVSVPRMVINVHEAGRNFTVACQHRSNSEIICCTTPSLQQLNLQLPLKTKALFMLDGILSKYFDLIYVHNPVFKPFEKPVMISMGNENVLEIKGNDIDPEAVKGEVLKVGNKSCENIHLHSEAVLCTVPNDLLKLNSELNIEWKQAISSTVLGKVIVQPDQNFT

[7] = target: human cMET on cMET+ human cancer cells (human, UniProt P08581 25-1390); test: cell-based or functional assay
Chain of human cMET on cMET+ human cancer cells (P08581 25-1390): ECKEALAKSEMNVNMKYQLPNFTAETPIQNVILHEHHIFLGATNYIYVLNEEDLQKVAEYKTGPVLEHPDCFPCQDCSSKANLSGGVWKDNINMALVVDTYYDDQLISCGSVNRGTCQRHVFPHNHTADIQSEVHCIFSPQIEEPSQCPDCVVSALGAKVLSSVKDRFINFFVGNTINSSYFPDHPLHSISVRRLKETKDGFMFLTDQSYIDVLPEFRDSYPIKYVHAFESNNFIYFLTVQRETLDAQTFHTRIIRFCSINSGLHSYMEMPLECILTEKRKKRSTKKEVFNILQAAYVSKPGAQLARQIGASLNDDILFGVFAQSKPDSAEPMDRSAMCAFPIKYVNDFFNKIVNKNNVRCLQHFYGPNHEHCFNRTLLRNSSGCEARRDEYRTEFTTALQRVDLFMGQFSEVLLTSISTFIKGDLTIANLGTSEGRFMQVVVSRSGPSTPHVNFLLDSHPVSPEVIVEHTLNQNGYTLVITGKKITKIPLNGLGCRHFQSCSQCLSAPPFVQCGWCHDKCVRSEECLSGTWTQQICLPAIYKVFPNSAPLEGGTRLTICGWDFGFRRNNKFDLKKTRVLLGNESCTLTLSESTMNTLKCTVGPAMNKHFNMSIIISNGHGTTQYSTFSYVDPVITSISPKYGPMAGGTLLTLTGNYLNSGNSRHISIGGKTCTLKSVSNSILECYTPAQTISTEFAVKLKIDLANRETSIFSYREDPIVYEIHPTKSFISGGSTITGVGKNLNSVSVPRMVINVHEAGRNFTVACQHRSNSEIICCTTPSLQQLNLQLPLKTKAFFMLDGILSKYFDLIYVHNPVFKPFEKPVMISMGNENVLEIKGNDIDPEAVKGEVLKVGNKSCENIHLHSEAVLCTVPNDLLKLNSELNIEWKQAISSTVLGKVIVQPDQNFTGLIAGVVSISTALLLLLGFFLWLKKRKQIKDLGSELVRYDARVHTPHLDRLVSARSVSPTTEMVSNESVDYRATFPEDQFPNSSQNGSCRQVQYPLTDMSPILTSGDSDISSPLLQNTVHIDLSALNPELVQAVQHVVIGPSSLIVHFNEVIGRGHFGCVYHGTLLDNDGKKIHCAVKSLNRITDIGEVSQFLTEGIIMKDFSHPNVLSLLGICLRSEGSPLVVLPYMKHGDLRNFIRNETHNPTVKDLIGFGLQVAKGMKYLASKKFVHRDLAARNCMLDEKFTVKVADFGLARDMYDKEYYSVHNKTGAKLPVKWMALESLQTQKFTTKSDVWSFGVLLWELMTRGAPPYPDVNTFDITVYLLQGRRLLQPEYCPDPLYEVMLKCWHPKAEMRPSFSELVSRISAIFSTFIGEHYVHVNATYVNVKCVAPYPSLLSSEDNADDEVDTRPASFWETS

rat cMET = rat cMET (rat, UniProt P97523 25-935, limits assumed); test: ELISA or BLI (the filing does not say which)
Chain of rat cMET (P97523 25-935 limits assumed): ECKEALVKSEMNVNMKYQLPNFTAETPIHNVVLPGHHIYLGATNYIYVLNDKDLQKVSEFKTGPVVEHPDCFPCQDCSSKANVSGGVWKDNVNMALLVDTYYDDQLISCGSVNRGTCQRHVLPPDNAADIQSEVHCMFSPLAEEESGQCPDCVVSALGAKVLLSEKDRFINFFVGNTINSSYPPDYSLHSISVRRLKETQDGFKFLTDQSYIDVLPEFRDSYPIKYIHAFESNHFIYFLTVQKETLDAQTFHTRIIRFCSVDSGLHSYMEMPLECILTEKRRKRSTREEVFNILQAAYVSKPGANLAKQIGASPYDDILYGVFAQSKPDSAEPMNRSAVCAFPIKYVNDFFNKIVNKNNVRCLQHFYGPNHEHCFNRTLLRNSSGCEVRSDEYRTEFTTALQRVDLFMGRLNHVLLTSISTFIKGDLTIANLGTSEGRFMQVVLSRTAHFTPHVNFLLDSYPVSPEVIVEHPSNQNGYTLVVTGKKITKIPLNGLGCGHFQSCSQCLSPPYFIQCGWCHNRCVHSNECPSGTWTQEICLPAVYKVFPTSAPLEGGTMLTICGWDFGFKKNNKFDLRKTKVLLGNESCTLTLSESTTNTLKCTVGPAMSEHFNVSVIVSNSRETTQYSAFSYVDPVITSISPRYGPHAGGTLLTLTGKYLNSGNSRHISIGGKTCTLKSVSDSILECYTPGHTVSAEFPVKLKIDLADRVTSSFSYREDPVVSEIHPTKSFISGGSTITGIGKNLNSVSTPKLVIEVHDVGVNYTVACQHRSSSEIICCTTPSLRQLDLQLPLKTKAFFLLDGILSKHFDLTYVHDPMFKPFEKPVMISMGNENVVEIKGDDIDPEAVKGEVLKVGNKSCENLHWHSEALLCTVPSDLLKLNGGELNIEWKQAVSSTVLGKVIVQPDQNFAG

mouse cMET = mouse cMET (mouse, UniProt P16056 25-931, limits assumed); test: ELISA or BLI (the filing does not say which)
Chain of mouse cMET (P16056 25-931 limits assumed): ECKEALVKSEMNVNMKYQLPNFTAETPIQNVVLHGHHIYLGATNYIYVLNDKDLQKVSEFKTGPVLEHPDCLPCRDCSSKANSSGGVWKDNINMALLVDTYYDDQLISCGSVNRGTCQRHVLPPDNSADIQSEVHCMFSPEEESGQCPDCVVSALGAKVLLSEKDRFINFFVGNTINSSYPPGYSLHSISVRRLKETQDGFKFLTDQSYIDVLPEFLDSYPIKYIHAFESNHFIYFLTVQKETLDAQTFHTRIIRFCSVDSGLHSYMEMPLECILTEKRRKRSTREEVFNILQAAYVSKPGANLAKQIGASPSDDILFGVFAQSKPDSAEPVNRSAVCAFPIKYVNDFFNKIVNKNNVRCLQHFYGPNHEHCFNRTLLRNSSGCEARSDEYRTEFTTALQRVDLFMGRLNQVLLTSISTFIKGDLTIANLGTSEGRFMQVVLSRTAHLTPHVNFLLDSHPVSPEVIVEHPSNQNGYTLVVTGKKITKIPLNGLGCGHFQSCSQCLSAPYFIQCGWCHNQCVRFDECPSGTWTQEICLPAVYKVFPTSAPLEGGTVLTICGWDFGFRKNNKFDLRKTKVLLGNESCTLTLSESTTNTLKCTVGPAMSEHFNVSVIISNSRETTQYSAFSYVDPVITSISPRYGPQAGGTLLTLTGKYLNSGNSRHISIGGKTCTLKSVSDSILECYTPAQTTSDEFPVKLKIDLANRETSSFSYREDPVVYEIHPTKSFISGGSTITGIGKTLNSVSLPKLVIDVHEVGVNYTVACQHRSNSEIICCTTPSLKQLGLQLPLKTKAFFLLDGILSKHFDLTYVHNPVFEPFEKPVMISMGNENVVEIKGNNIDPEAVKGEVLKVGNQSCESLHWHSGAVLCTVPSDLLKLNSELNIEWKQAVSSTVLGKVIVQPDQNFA

recombinant human cMET = recombinant human cMET (human, UniProt P08581 25-932, limits assumed); test: BLI (Octet), antibody captured on AHC sensor, recombinant human cMET as analyte, pH 7.4; BLI, recombinant human cMET as analyte, pH 7.4
Chain of recombinant human cMET (P08581 25-932 limits assumed): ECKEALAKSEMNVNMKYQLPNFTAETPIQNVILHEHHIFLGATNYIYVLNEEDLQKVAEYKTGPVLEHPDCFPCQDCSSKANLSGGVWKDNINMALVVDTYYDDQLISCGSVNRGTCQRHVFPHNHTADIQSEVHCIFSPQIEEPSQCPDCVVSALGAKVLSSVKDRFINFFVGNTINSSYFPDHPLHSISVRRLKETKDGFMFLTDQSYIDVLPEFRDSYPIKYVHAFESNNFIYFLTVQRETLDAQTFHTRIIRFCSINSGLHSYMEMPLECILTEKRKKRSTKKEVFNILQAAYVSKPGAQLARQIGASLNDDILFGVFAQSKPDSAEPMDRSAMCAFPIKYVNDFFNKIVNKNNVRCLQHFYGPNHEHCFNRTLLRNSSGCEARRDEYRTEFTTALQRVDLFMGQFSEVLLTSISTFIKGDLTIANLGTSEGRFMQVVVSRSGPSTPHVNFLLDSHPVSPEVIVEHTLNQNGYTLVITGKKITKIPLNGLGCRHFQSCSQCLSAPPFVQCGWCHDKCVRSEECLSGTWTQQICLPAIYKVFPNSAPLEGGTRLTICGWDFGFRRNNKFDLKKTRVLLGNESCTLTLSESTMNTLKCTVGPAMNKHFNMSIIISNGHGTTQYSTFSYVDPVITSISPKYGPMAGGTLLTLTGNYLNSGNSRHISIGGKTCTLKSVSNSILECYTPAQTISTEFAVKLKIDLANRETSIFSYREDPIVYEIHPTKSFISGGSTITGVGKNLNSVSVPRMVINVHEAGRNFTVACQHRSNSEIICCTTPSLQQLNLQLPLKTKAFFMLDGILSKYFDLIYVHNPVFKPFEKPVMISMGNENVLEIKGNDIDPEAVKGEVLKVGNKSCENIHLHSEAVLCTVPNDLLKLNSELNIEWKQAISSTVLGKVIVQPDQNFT

Molecule: CC[C@H](C)[C@@H]([C@@H](CC(=O)N1CCC[C@H]1[C@H](OC)[C@@H](C)C(=O)N[C@H](C)[C@@H](O)c1ccccc1)OC)N(C)C(=O)[C@@H](NC(=O)[C@@H](NC)C(C)C)C(C)C [MMAE, monomethyl auristatin E] (H-[NMeV]V[Dil][Dolaproine]-X1)
- percentage of cells in G2-M phase (EBC-1 cells [1]): 68.6%

Molecule: Q397-noV205C: Anti-cMET antibody of MYTX-011 without the V205C substitution; SEQ ID NO: 75 and SEQ ID NO: 81
- CDC activity (EBC-1 cell lysis) (EBC-1 cells [2]): minimal to no; also recorded: did not induce EBC-1 cell lysis
- proliferation of cMET+ NCI-H441 cells (NCI-H441 cells): did not increase
- ADCC activity (EBC-1 cells [3]): minimal to no; also recorded: Minimal ADCC activity
- ADCP activity (EBC-1 cells [4]): minimal to no; also recorded: no ADCP activity
- phosphorylation of ERK1/2 or Akt1 [5]: minimal phosphorylation

Other lines, results leading:

- Kd [6]: 9.44 nM
- uptake of pHrodo-conjugated mAb in NCI-H1975 cells by live cell imaging, at 24 hours, over the parent mAb [7]: 3 fold
- binding result (rat cMET): no binding
- binding result (mouse cMET): no binding
- Kd (recombinant human cMET): 4 nM
B1: MYTX-011 mAb (antibody, V domains shown)
VH: QVQLVQSGAEVKKPGASVKVSCKASGYTFTDYYMHWVRQAPGQGLEWMGRVNPNRRGTTYNQKFEGRVTMTTDTSTSTAYMELRSLRSDDTAVYYCARANWLDYWGQGTTVTVSS
VL: DIQMTQSPSSLSASVGDRVTITCSVSSSVSSIHLHWYQQKPGKAPKLLIYHTSNLASGVPSRFSGSGSGTDFTLTISSLQPEDFATYYCQVYSGYPLTFGGGTKVEIKR
notes: also called Q397

- binding result (rat cMET): no binding
- binding result (mouse cMET): no binding
B2: MYTX-011 (antibody, IgG1, V domains shown)
VH: QVQLVQSGAEVKKPGASVKVSCKASGYTFTDYYMHWVRQAPGQGLEWMGRVNPNRRGTTYNQKFEGRVTMTTDTSTSTAYMELRSLRSDDTAVYYCARANWLDYWGQGTTVTVSS
VL: DIQMTQSPSSLSASVGDRVTITCSVSSSVSSIHLHWYQQKPGKAPKLLIYHTSNLASGVPSRFSGSGSGTDFTLTISSLQPEDFATYYCQVYSGYPLTFGGGTKVEIKR
modifications: vcMMAE (mc-vc-PAB-MMAE) linked to the engineered cysteine at position 98 of the light chain constant domain ("V205C"); DAR 2
notes: Antibody drug conjugate: humanized triple hinge IgG1 kappa antibody Q397 conjugated site-specifically to vcMMAE, drug to antibody ratio 2; also called anti-cMET pH-ADC; pH-ADC
